Where “and” joins values, the source holds several entries; their conditions need not be identical. Equal entries are not always repeated. Blank lines part the entries; values can stand above or below the binder they belong to.
Columns and labels:
[1] = target: T1, Galectin-3 (UniProt P17931 1-250, limits assumed); test: BLI; Time 0 (control)
T1 construct: Target of the anti-Gal3 antibody TB006; also called Gal3; GAL3

[2] = target: T1, Galectin-3; test: BLI; after 4 C for 1 month
[3] = target: T1, Galectin-3; test: BLI; after 25 C for 1 month
[4] = target: T1, Galectin-3; test: BLI; after -80 C for 3 months
[5] = target: T1, Galectin-3; test: BLI; after -80 C for 6 months
[6] = target: T1, Galectin-3; test: BLI; after 3 freeze/thaws, 50% vol. of container
[7] = target: T1, Galectin-3; test: BLI; after 3 freeze/thaws, 75% vol. of container
[8] = target: T1, Galectin-3; test: BLI; after 5 freeze/thaws, 75% vol. of container
[9] = target: T1, Galectin-3; test: BLI; after 3 freeze/thaws, 100% vol. of container
[10] = target: T1, Galectin-3; test: ELISA (Biological Activity); long-term stability 5 C, 3 months
[11] = target: T1, Galectin-3; test: BLI (Binding Activity); accelerated stability 25 C/60% RH, 1 month
[12] = target: T1, Galectin-3; test: ELISA (Biological Activity); accelerated stability 25 C/60% RH, 1 month
[13] = target: T1, Galectin-3; test: ELISA blocking assay; TB006 diluted to 0.31 mg/mL in 0.9% NaCl, 25 C, 2 h; blocked partner not named
[14] = target: T1, Galectin-3; test: BLI (Binding Activity); long-term stability 5 C, 0 months; 5° C. long-term table, 0 months, Batch No. 095I0720
[15] = target: T2, Galectin-3 (Gal3) (UniProt P17931 1-250, limits assumed); test: BLI; 20 mg/mL DS after 5 freeze/thaws
T2 construct: Target of TB006
In short: (§1)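 Binding to Galectin-3 was assessed by biolayer interferometry and given as the dissociation constant (Kd). Samples were tested at time zero or after stress, namely agitation (shear), repeated freeze-thaw cycles, or storage at set temperatures. The storage conditions included a 40° C stress test and cryogenic storage.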

[16] = target: T2, Galectin-3 (Gal3); test: BLI; 20 mg/mL DS after 40 C for 7 days
[17] = target: T2, Galectin-3 (Gal3); test: BLI; 20 mg/mL DS after 25 C for 14 days
In short: as §1

[18] = target: T2, Galectin-3 (Gal3); test: BLI; 20 mg/mL DS after 4 C for 3 months
[19] = target: T2, Galectin-3 (Gal3); test: BLI; 20 mg/mL DS after 4 C for 6 months
[20] = target: T2, Galectin-3 (Gal3); test: BLI; 20 mg/mL DS after 40 C for 14 days
[21] = target: T2, Galectin-3 (Gal3); test: BLI; 20 mg/mL DS after 40 C for 28 days
[22] = target: T2, Galectin-3 (Gal3); test: BLI; 50 mg/mL DS after 4 C for 3 months
[23] = target: T2, Galectin-3 (Gal3); test: BLI; 50 mg/mL DS after 4 C for 6 months
[24] = target: T2, Galectin-3 (Gal3); test: BLI; 50 mg/mL DS after 40 C for 21 days
[25] = target: T2, Galectin-3 (Gal3); test: BLI; 50 mg/mL DS after 40 C for 28 days
[26] = target: T2, Galectin-3 (Gal3); test: BLI; 20 mg/mL DS after 25 C for 3 months
In short: as §1

[27] = target: T2, Galectin-3 (Gal3); test: BLI; 20 mg/mL DS after 25 C for 9 months
[28] = target: T2, Galectin-3 (Gal3); test: BLI; 50 mg/mL DS after -80 C for 1 month
[29] = target: T2, Galectin-3 (Gal3); test: BLI; 50 mg/mL DS after -80 C for 3 months
[30] = target: T2, Galectin-3 (Gal3); test: BLI; 50 mg/mL DS after -80 C for 12 months
[31] = target: T2, Galectin-3 (Gal3); test: BLI; 50 mg/mL DS after agitation for 1 day
[32] = target: T2, Galectin-3 (Gal3); test: BLI; 50 mg/mL DS after agitation for 3 days

T2 sequence (P17931 whole entry): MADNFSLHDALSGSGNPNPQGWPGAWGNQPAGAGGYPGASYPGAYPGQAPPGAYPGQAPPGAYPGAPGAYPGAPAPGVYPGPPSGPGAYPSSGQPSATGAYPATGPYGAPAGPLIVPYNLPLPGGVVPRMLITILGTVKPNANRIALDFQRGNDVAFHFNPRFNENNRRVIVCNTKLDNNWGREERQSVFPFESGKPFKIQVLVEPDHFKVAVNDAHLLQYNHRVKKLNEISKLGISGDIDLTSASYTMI
T1 sequence (P17931 whole entry): as above

Kd [1]: 2.8 nM | Kd [2]: 3.3 nM | Kd [3]: 3.1 nM | Kd [4]: 3.3 nM | Kd [5]: 2.8 nM | Kd [6]: 2.3 nM | Kd [7]: 2.6 nM | Kd [8]: 2.9 nM | Kd [9]: 2.7 nM | IC50 [10]: 1.5 µg/mL | Kd [11]: 2.5 nM | IC50 [12]: 1.8 µg/mL | IC50 [13]: 1.67 µg/mL and 1.71 µg/mL | Kd [14]: 3 nM
B1: TB006 (antibody, human IgG4 S228P, kappa, V domains shown)
VH: QVQLVQSGAEVKKPGASVKVSCKASGYSFTNYYMHWVRQAPGQRLEWMGWIYPGSGNTNYNEKFQGRVTITADTSASTAYMELSSLRSEDTAVYYCSTAPGGFDVWGQGTTVTVSS
VL: DIVMTQTPLSLSVTPGQPASISCKSSKSLLHSDGITYLYWYLQKPGQSPQLLIYRMSNLASGVPDRFSGSGSGTDFTLKISRVEAEDVGVYYCAQMLEFPLTFGQGTKLEIKR
notes: Tested as formulated drug substance or drug product in 20 mM L-histidine, 5 mM methionine, 100 mM NaCl, 0.02% polysorbate 80, pH 5.8, or diluted in 0.9% saline; also called 4A11.H3L1; IMT006a

Kd [15]: 3.1 nM | Kd [16]: 2.9 nM | Kd [17]: 2.7 nM | Kd [18]: 3.4 nM | Kd [19]: 3.3 nM | Kd [20]: 2.9 nM | Kd [21]: 3.8 nM | Kd [22]: 2.3 nM | Kd [23]: 2.1 nM | Kd [24]: 3 nM | Kd [25]: 2.3 nM | Kd [26]: 3.4 nM | Kd [27]: 2.1 nM | Kd [28]: 2.3 nM | Kd [29]: 2.5 nM | Kd [30]: 3.5 nM | Kd [31]: 3.8 nM | Kd [32]: 3.7 nM
B2: TB006 (antibody, human IgG4 S228P, kappa, V domains shown)
VH: B1 VH
VL: B1 VL
notes: Full antibody tested as drug substance (DS) in 20 mM L-histidine, 5 mM methionine, 100 mM NaCl, 0.02% polysorbate-80, pH 5.8; also called 4A11.H3L1; IMT006a

Reference: patent publication US20240158512A1 (TRUEBINDING, published 2024)
